Source: patent US6613878 (CYCLACEL, dated 2003)
Ends that are not written are not given here. * marks the point of attachment. Biotin = O=C1N[C@H]2[C@H](CS[C@H]2CCCCC(=O)*)N1

Columns and labels:
[1] = target: T1, human PCNA (proliferating cell nuclear antigen) (human, UniProt P12004 1-261); test: precipitation assay
T1 construct: also called recombinant human PCNA
Procedure: (§1) Twenty amino acid peptides with 15 amino acid overlaps were synthesized (Chiron Mimotopes, Australia) across the 89 amino acids from the C-terminal region of Fen1 identified in the two hybrid screen as the PCNA binding site on Fen1. These peptides were linked via residues SGSG (SEQ ID NO:3) at the amino acid terminus to biotin. 2.7 µg of each peptide was incubated with 10 µl streptavidin agarose beads (Sigma) in phosphate buffered saline (PBS) for 1 hour at room temperature (r.t.) then beads were washed extensively in PBS and recovered each time by centrifugation at 11,600 g. HeLa cell lysate was added to the washed beads to a final protein concentration of 1 mg/ml and incubated with the beads on ice for 1 hour. Beads were extensively washed in PBS with 220 mM NaCl, then bound proteins removed by boiling for 8 minutes in SDS loading buffer with 0.2 M DTT. Proteins were separated on 10% SDS-PAGE then electrophoretically transferred to nitrocellulose. Blots were blocked then incubated for 1 hour r.t. with PC 10 hybridoma supernatant (Waseem & Lane, 1990) diluted 1:5 in DMEM with 10% FCS. After washing, secondary HRP-conjugated anti-mouse IgG serum at 1:1000 in 2% non-fat milk-PBS-0.2% Tween was added for 1 hour at r.t. Bound antibody was visualised using the ECL system according to the manufacturer's instructions (Amersham plc.)
To map precisely the residues of Fen1 to which PCNA binds, a series of biotinylated 20 amino acids peptides (with 15 amino acid overlaps) were synthesized representing the region of Fen1 found to interact with PCNA in the two hybrid screen (FIG. 1). Fen1 peptides (bound to streptavidin agarose beads) were incubated with human HeLa cell extracts, then beads were precipitated and bound protein analysed on immunoblots probed with monoclonal anti-PCNA antibody PC10 (Waseen & Lane, 1990).

[2] = target: T2, human Fen1 fused to the transcriptional activation domain of Gal4 (Gal4ACT) (human, UniProt P39748 1-380); test: yeast two hybrid
T2 construct: range 1-380; Yeast two hybrid prey; also called DNase IV; rad2hs
Text: The 89 Amino Acids From the C-terminal Region of Fen1 Bind PCNA in an Interaction Trap Proteins that interact physically with human PCNA were screened using a two hybrid interaction trap system that detects protein-protein interactions by reconstitution of a functional Gal4 transcriptional activator in the yeast *Saccharomyces cerevisiae*. A plasmid expressing human PCNA in fusion with the DNA binding domain of Gal4 (Gal4AS) was used to screen plasmids expressing fusion constructs of molecules encoded by fragments from a human cDNA library with the transcriptional activation domain of Gal4 (Gal4ACT). […] The minimal Fen1 fragment isolated in our screen (FIG. 1) encoded the 89 amino acids from the C-terminal region of the protein (full length 380 aa, (Murray et al., 1994)), therefore localising the PCNA binding site to these residues.

[3] = target: T1, human PCNA (proliferating cell nuclear …); test: peptide on streptavidin agarose beads, precipitation from HeLa extract, PC10 immunoblot
Procedure: as §1, with “These” for “Twenty amino acid peptides with 15 amino acid overlaps were synthesized (Chiron Mimotopes, Australia) across the 89 amino acids from the C-terminal region of Fen1 identified in the two hybrid screen as the PCNA binding site on Fen1. These”
The region of human Fen1 recognised by PCNA in the precipitation assay contains a motif highly conserved in the Fen1 family. We examined whether human PCNA could bind to his motif in the yeast homologues of Fen1, *S. pombe* rad2 and *S. pombe* RAD27/YKL510. […]

T1 sequence (P12004 whole entry): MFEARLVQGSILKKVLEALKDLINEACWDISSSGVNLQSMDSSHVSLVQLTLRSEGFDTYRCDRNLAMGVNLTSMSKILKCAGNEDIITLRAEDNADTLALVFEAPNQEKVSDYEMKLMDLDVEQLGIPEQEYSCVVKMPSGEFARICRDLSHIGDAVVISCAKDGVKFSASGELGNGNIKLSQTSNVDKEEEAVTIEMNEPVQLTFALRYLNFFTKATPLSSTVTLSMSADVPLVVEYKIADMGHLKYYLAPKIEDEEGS
T2 sequence (P39748 whole entry, the tested form may be a part): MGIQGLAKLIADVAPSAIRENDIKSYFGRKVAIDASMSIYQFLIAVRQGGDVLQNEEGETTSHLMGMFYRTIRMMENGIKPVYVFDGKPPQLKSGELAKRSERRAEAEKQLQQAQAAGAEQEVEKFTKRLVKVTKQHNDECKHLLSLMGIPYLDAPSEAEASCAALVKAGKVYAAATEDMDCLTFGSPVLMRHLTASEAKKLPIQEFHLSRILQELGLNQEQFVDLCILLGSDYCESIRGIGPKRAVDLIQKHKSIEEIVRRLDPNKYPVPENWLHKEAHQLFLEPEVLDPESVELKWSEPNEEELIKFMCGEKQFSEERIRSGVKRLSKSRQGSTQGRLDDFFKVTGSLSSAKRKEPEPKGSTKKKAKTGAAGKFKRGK

Row | Binder | binding result [1] | other results
1 | Biotin-SGSGTQGRLDDFFKVTGSLSSAKR [Fen1 peptide 86] | binds | 
2 | Biotin-SGSGKRLSKSRQGSTQGRLDDFFK (also called FenPBP) [Fen1 peptide 84 (Fen1PBP, Fen1-PCNA binding peptide)] | binds | 
3 | PCNA from Drosophila melanogaster (other, UniProt P17917 1-260, looked up, Two hybrid construct; the Gal4 fusion is not described for this protein; also called D. melanogaster PCNA) MFEARLGQATILKKILDAIKDLLNEATFDCSDSGIQLQAMDNSHVSLVSLTLRSDGFDKFRCDRNLSMGMNLGSMAKILKCANNEDNVTMKAQDNADTVTIMFESANQEKVSDYEMKLMNLDQEHLGIPETDFSCVVRMPAMEFARICRDLAQFSESVVICCTKEGVKFSASGDVGTANIKLAQTGSVDKEEEAVIIEMQEPVTLTFACRYLNAFTKATPLSTQVQLSMCADVPLVVEYAIKDLGHIRYYLAPKIEDNET |  | binding result [2]: binds
4 | PCNA from Schizosaccharomyces pombe (other, UniProt Q03392 1-260, looked up, Two hybrid construct; the Gal4 fusion is not described for this protein; also called S. pombe PCNA; pcn1 product) MLEARFQQAALLKKLLDAIKELVTDANFDCNDNGISLQAMDSSHVALVSMLIKSDGFEPYRCDRNIALGINLNALSKVLRCAQNEDLVTLKAEDTPEVLNLVFESEKNDRISDYDVKLMDIDQEHLGIPDIEYDATITMPAAEFQRITRDLLTLSDSVTINASKEGVRFSCKGDIGNGSTTLKQHTDLSDQDQSIEISLTQAVTLTFSLKYLAQFTKATPLATRVTLSMSNDVPLLVEYKMESGFLRFYLAPKIGEEDEE |  | binding result [2]: binds
5 | Biotin-SGSGSRQGSTQGRLDDFFKVTGSL [Fen1 peptide 85] | binds | 
6 | ASKTIPQGRLDSFFKPVPSS (not fully specified (N-terminus); also: biotinylated, position not given here, also called rad2 peptide) [peptide 92, 20 amino acid peptide of the conserved box of S. pombe rad2] | binds | 
7 | GLKSGIQGRLDGFFQVVPKT (not fully specified (N-terminus); also: biotinylated, position not given here, also called RAD27 peptide) [peptide 93, 20 amino acid peptide of the conserved box of S. cerevisiae RAD27/YKL510] |  | binding result [3]: binds
